Data taken from patent US20260007714A1 (TEN PEAKS, published 2026).

Assays:
HLA-B*57:01 = target: T1, HLA-B*57:01 (human); experiment: refolding of HLA with synthetic peptide, size-exclusion chromatography (FIG. 4A)
T1 construct: the method paragraph describes expression only for HLA-B*39:01; also called HLA-B*057:01

HLA-B*15:01 = target: T2, HLA-B*15:01 (human); experiment: refolding of HLA with synthetic peptide, size-exclusion chromatography (FIG. 4B)
T2 construct: the method paragraph describes expression only for HLA-B*39:01

Binder | binding result (HLA-B*57:01) | binding result (HLA-B*15:01)
THQGLSSPV (Synthetic peptide (Genscript) derived from infliximab; also called 3901_thq) [SEQ ID NO: 1 (THQGLSSPV), synthetic peptide derived from the infliximab light chain] | no binding | no binding
TKGPSVFPL (Synthetic peptide (Genscript) derived from infliximab; also called 3901_tkg) [SEQ ID NO: 2 (TKGPSVFPL), synthetic peptide derived from the infliximab heavy chain] | no binding | no binding
